Experimental data reported in publication PMC6930364.

Target: L-DOPA dioxygenase from Streptomyces sclerotialus (SsDDO) (Streptomyces sclerotialus)
Assay: crystal structure

- stoichiometry N: 2
Substance: L-DOPA dioxygenase from Streptomyces sclerotialus (SsDDO) (enzyme)
